Measured values from patent publication US20230406935A1 (F STAR THERAPEUTICS, published 2023).
One block for each binder: values may come before it.

Columns and labels:
[1] = target: T1, Recombinant human PD-1 with a C-terminal human IgG tag (R&D Systems, 1086-PD) (human, UniProt Q15116 25-167); assay: SPR Biacore, PD-1 coated on the chip, Fcab in flow
T1 construct: also called human PD-1 Fc; biotinylated PD-1 Fc
Source text: (§1) The Fcab was then flowed over the chip at a 1000-fold concentration range. […] However, the Fcab did bind to PD-L1.

[2] = target: T2, PD-L2 (R&D systems 1224-PL) (UniProt Q9BQ51 20-219); assay: SPR Biacore, PD-L2 coated on the chip, Fcab in flow
T2 sequence (looked up): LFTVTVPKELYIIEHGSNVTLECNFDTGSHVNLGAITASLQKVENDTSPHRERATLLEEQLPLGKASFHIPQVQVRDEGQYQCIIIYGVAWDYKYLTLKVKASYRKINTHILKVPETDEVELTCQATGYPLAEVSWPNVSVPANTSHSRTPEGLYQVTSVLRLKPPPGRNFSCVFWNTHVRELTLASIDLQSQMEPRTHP
Source text: as §1

[3] = target: T3, Biotinylated hPD-L1-Fc-Avi (human, UniProt Q9NZQ7 19-238); assay: cell-based RBA, blocking of hPD-L1-Fc-Avi binding to HEK293 hCD80 cells
T3 sequence (Q9NZQ7 19-238 limits assumed): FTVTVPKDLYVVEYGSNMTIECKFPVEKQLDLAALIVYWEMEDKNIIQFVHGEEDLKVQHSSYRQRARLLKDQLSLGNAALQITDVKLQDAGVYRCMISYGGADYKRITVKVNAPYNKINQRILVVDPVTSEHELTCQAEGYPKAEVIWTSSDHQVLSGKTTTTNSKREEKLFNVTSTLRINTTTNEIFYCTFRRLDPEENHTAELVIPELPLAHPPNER
Protocol: (§2) The ability of the Fcabs and mock mAb² to block hPD-1/hPD-L1 and hPD-L1/hCD80 interactions was tested in cell-based Receptor Binding Assays (RBA). […] The mix was incubated for another hour with HEK293 cells overexpressing either hPD-1 or hCD80.

[4] = target: T3, Biotinylated hPD-L1-Fc-Avi; assay: cell-based RBA, blocking of hPD-L1-Fc-Avi binding to HEK293 hPD-1 cells
Protocol: as §2

[5] = target: T4, Monomeric His-tagged human PD-L1 (Acro biosystems PD1-H5229) (human, UniProt Q9NZQ7 19-238); assay: SPR Biacore, captured on protein A, monomeric PD-L1-his in flow, 1:1 fit
T4 construct: also called hPD-L1-his; PD-L1-his
T4 sequence (Q9NZQ7 19-238 limits assumed): as above
Protocol: The monomeric PD-L1-his human antigen was flowed over the chip in titrating concentrations at a high flow rate to minimise mass transport limitations. The KDS were measured using a 1:1 fitting analysis with no refractive index correction and Rₘₐₓ set to local.

[6] = target: T5, Human PD-L1 expressed on cells (human, UniProt Q9NZQ7 19-290); assay: flow cytometry, HEK293 cells overexpressing the target, anti-human Fc 488
T5 construct: also called cell-surface human PD-L1; hPD-L1
T5 sequence (Q9NZQ7 19-290 limits assumed): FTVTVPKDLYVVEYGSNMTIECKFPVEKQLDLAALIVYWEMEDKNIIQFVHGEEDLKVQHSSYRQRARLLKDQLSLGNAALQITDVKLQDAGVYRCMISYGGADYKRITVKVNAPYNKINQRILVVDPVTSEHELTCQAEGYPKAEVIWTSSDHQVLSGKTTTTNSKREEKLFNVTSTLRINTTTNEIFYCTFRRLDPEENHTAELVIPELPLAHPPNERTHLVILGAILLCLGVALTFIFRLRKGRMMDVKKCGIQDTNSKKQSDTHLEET
Protocol: (§3) Cell binding assays were performed by incubating Fcabs or mAb² proteins with either control HEK293 cells or HEK293 cells overexpressing hPD-L1 or cynomolgus PD-L1 cells for 1 hour at 4° C. Fcab/mAb binding was subsequently detected using an anti-human Fc 488 detection antibody. Fluorescent signal intensities were measured using a FACS canto.

[7] = target: T6, Cynomolgus PD-L1 expressed on HEK 293 cells (cynomolgus, UniProt Q9NZQ7 19-290 (human entry)); assay: as above
T6 construct: also called cell-expressed cynomolgus PD-L1
T6 sequence (Q9NZQ7 other isoform, or with tags, fused parts or gaps limits assumed): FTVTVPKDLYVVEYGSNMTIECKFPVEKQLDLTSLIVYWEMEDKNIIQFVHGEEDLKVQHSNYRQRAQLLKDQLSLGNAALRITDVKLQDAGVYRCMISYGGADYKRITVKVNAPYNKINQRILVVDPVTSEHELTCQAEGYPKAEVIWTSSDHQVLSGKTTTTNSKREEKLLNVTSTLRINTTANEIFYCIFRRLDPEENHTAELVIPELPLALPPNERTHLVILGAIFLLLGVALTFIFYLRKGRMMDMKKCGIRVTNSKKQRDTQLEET
Protocol: as §3

[8] = target: the molecule itself; assay: analytical ultracentrifugation, self-association of the Fcab (monomer and dimer peaks)
Protocol: To address this, the molecules were analysed via analytical ultracentrifugation using a Beckman Optima XL-1 instrument.
These domains were then purified using protein A to remove Fc domains, anti-his to remove enzymes and finally subjected to SEC to purify the monomeric fraction.

[9] = target: T4, Monomeric His-tagged human PD-L1 (Acro …); assay: SPR Biacore T200, Fcab captured on protein A chip, monomeric antigen in flow, 1:1 fit
[10] = target: T7, Monomeric cynomolgus PD-L1 (Acro Biosciences PD1-C52H4) (cynomolgus, UniProt Q9NZQ7 19-238 (human entry)); assay: as above
T7 construct: also called cynomolgus monomeric PD-L1
T7 sequence (Q9NZQ7 other isoform, or with tags, fused parts or gaps limits assumed): as the sequence (Q9NZQ7 19-238 limits assumed) above, with A33T, A34S, S62N, R68Q, Q82R, F173L, T185A, T192I, H215L counted along it

[11] = target: T8, Mouse CD80 expressed on HEK 293 cells (mouse, UniProt Q00609 38-306); assay: flow cytometry on HEK 293 cells
T8 sequence: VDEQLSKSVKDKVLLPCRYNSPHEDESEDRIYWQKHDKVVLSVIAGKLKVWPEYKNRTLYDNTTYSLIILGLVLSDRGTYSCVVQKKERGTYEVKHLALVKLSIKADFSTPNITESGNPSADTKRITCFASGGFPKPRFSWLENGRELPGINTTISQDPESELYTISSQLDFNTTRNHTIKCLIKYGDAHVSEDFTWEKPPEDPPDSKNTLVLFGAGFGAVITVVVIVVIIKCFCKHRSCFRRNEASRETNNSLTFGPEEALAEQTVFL

[12] = target: Mouse PD-L1 expressed on HEK 293 cells (mouse, UniProt Q9EP73 19-290); assay: flow cytometry on HEK 293 cells
Mouse PD-L1 expressed on HEK 293 cells, sequence (Q9EP73 19-290 limits assumed): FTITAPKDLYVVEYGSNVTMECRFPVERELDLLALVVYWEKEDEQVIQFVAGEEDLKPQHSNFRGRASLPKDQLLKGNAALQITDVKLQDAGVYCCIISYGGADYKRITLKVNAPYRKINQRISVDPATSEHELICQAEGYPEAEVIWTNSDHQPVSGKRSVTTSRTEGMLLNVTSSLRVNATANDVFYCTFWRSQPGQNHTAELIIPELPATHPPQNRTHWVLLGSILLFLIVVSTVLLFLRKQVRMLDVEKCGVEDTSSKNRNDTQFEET

[13] = target: T9, Human PD-1 expressed on HEK 293 cells (human, UniProt Q15116 25-288); assay: flow cytometry on HEK 293 cells
T9 construct: also called hPD-1
T9 sequence (Q15116 25-288 limits assumed): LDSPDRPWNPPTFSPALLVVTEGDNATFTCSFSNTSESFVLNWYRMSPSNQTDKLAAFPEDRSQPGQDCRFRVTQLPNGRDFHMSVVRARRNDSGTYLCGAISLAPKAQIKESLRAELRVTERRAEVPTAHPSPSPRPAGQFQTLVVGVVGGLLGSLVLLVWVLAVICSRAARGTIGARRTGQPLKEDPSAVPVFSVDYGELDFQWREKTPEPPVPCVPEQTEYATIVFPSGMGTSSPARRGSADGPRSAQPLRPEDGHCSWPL

[14] = target: T10, Human CD80 expressed on HEK 293 cells (human, UniProt P33681 35-288); assay: flow cytometry on HEK 293 cells
T10 construct: also called hCD80
T10 sequence: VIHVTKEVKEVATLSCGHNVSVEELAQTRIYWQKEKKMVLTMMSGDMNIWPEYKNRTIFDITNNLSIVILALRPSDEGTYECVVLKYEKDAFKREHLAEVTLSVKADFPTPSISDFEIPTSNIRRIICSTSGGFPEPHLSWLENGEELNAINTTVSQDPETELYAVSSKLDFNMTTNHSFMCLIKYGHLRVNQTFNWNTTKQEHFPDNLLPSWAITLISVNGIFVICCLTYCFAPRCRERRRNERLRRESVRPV

[15] = target: T11, Recombinant mouse PD-L1 with a C-terminal human IgG tag (R&D Systems, 1019-B7), biotinylated (mouse, UniProt Q9EP73 19-238); assay: SPR BIAcore 3000, mouse PD-L1 Fc on streptavidin chip
T11 construct: also called mouse PD-L1 Fc
T11 sequence (Q9EP73 19-238 limits assumed): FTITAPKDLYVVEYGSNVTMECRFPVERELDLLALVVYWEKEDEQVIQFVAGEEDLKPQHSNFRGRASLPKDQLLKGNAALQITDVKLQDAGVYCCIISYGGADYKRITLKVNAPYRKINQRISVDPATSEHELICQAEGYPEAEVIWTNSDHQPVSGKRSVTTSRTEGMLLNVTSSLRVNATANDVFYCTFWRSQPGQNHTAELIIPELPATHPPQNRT

T1 sequence (Q15116 25-167 limits assumed): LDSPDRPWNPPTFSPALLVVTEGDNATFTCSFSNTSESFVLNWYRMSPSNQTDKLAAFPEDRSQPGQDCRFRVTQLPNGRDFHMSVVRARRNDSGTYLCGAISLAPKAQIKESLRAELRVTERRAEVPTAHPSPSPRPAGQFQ

B1: Fcab FS17-33-116 (designed binder)
chain: TCPPCPAPELLGGPSVFLFPPKPKDTLMISRTPEVTCVVVDVSHEDPEVKFNWYVDGVEVHNAKTKPREEQYNSTYRVVSVLTVLHQDWLNGKEYKCKVSNKALPAPIEKTISKAKGQPREPQVYTLPPSRDESGYWVSLTCLVKGFYPSDIVVEWESNGEPQYWAKTTPPVLDSDGSFFLYSKLTVSNWRWQMDDFSCSVMHEALHNHYTQKSLSLSPGK
binding result [1]: no binding
binding result [2]: no binding
EC50 [3]: 8.4 nM
EC50 [4]: 9.5 nM
Kd [5]: 0.49 nM
koff [5]: 0.00044 s⁻¹
kon [5]: 1.5e+06 M⁻¹ s⁻¹
Kd [6]: 1.68 nM
Kd [7]: 0.665 nM
Kd [8]: ~2000 nM
Kd [9]: 0.33 nM
Kd [10]: 0.42 nM

binding result [11]: no binding (tested: 1 µM)
binding result [12]: no binding (tested: 1 µM)
binding result [13]: no binding (tested: 1 µM)
binding result [14]: no binding (tested: 1 µM)
binding result [15]: no binding
B2: Fcab FS17-33 (Example 1, soluble Fcab with truncated hinge) (designed binder)
chain: TCPPCPAPELLGGPSVFLFPPKPKDTLMISRTPEVTCVVVDVSHEDPEVKFNWYVDGVEVHNAKTKPREEQYNSTYRVVSVLTVLHQDWLNGKEYKCKVSNKALPAPIEKTISKAKGQPREPQVYTLPPSRDEQSGYWVSLTCLVKGFYPSDIAVEWESNGQPENNYKTTPPVLDSDGSFFLYSKLTVSNWRWQMGDFSCSVMHEALHNHYTQKSLSLSPGK
